Measurements taken from patent US20210395393A1 (published 2021).

Key:
[1] = biological target: T1, recombinant human tPA (rh-tPA: abcam ab92637) (UniProt P00750 36-562); test: ELISA
[2] = biological target: T1, recombinant human tPA (rh-tPA: abcam …); test: ELISA; Plate 1, human serum, 37°C
[3] = biological target: T1, recombinant human tPA (rh-tPA: abcam …); test: ELISA; Plate 1, PBS, 4°C
[4] = biological target: T1, recombinant human tPA (rh-tPA: abcam …); test: ELISA; Plate 2, PBS, 4°C
[5] = biological target: T1, recombinant human tPA (rh-tPA: abcam …); test: ELISA; remark: listed apart in the source
[6] = biological target: T1, recombinant human tPA (rh-tPA: abcam …); test: ELISA; Plate 2, cynomolgus serum, 37°C
[7] = biological target: T1, recombinant human tPA (rh-tPA: abcam …); test: ELISA; Plate 2, mouse serum, 37°C
[8] = biological target: T1, recombinant human tPA (rh-tPA: abcam …); test: ELISA; Plate 2, PBS, 4°C; remark: listed apart in the source
[9] = biological target: T1, recombinant human tPA (rh-tPA: abcam …); test: ELISA; Plate 2, mouse serum, 37°C; remark: listed apart in the source
[10] = biological target: T1, recombinant human tPA (rh-tPA: abcam …); test: ELISA; Plate 2, cynomolgus serum, 37°C; remark: listed apart in the source
[11] = biological target: T1, recombinant human tPA (rh-tPA: abcam …); test: ELISA; Plate 1, PBS, 4°C; remark: listed apart in the source
[12] = biological target: T1, recombinant human tPA (rh-tPA: abcam …); test: ELISA; Plate 1, PBS, 37°C
[13] = biological target: T1, recombinant human tPA (rh-tPA: abcam …); test: ELISA; Plate 1, human serum, 37°C; remark: listed apart in the source
[14] = biological target: T1, recombinant human tPA (rh-tPA: abcam …); test: ELISA; purified Fab
[15] = biological target: T1, recombinant human tPA (rh-tPA: abcam …); test: ELISA; Plate 1, PBS, 37°C; remark: listed apart in the source
[16] = biological target: T1, recombinant human tPA (rh-tPA: abcam …); test: ELISA; Plate 1, human serum, 37°C; remark: listed apart in the source
[17] = biological target: T1, recombinant human tPA (rh-tPA: abcam …); test: ELISA; Plate 2, mouse serum, 37°C; remark: listed apart in the source
[18] = biological target: T1, recombinant human tPA (rh-tPA: abcam …); test: ELISA; Plate 2, PBS, 4°C; remark: listed apart in the source
[19] = biological target: T1, recombinant human tPA (rh-tPA: abcam …); test: ELISA; Plate 1, PBS, 4°C; remark: listed apart in the source

T1 sequence (P00750 36-562): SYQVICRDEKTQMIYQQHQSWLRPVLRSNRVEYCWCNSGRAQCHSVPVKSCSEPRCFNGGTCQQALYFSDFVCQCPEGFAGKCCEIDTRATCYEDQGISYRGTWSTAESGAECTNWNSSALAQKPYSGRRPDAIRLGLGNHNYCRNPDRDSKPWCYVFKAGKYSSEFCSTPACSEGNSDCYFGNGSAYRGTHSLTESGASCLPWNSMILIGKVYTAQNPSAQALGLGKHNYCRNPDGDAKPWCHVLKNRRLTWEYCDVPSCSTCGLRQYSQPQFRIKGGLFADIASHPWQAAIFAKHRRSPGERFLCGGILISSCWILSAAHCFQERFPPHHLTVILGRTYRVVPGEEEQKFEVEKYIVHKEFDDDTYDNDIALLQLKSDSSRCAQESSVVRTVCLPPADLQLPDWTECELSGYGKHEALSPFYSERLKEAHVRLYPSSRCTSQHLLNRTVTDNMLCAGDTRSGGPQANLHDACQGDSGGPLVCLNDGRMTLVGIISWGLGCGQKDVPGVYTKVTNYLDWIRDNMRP

B1: TPAi-1 RHP/RKA (antibody, V domains shown)
VH: QVQLVQSGAEVKKPGASVKVSCKASGNTSYWINWVRQATGQGLEWMGRIDPGGGSTGYAQKFQGRVTMTRDTSISTAYMELSSLRSEDTAVYYCASYYYAMAYWGQGTLVTVSS
VL: DVVMTQSPLSLPVTPGEPASISCRSSQSIVHSNGNTYLDWYLQKPGQSPQLLIYKVSNRASGVPDRFSGSGSGTDFTLKISRVEAEDVGVYYCFQGSHVPWTFGGGTKVEIK
IC50 [1]: 0.316 nM
EC50 [2]: 0.404 nM
EC50 [3]: 0.229 nM
EC50 [4]: 0.304 nM
IC50 [5]: 0.365 nM
EC50 [6]: 0.514 nM
EC50 [7]: 0.403 nM

B2: TPAi-1 RHE/RKA (antibody, V domains shown)
VH: QVQLVQSGAEVKKPGASVKVSCKASGNTSYWINWVRQATGQGLEWMGRIDPGGGSTGYAQKFQGRVTMTRNTSISTAYMELSSLRSEDTAVYYCASYYYAMAYWGQGTLVTVSS
VL: DVVMTQSPLSLPVTPGEPASISCRSSQSIVHSNGNTYLDWYLQKPGQSPQLLIYKVSNRASGVPDRFSGSGSGTDFTLKISRVEAEDVGVYYCFQGSHVPWTFGGGTKVEIK
EC50 [8]: 0.51 nM
EC50 [9]: 0.694 nM
EC50 [10]: 0.717 nM
EC50 [11]: 0.596 nM
EC50 [12]: 0.972 nM
EC50 [13]: 0.647 nM

B3: TPAi-1 RHP/RKA Fab (Fab, V domains shown)
VH: QVQLVQSGAEVKKPGASVKVSCKASGNTSYWINWVRQATGQGLEWMGRIDPGGGSTGYAQKFQGRVTMTRDTSISTAYMELSSLRSEDTAVYYCASYYYAMAYWGQGTLVTVSS
VL: DVVMTQSPLSLPVTPGEPASISCRSSQSIVHSNGNTYLDWYLQKPGQSPQLLIYKVSNRASGVPDRFSGSGSGTDFTLKISRVEAEDVGVYYCFQGSHVPWTFGGGTKVEIK
IC50 [14]: 1.62 nM
EC50 [15]: 2.16 nM
EC50 [16]: 0.978 nM
EC50 [17]: 0.966 nM
EC50 [18]: 1.75 nM
EC50 [19]: 1.45 nM
